In publication PMC10229695:

What was measured:
[1] = system: NLRP3 WT (human); assay: competition pulldown (streptavidin beads, western blot); conditions: elution from biotinylated mtDNA beads, EMSA and pulldown: 50 mM Tris pH 7.4, 100 mM NaCl, 2 mM MgCl2, 12% glycerol, 4 C overnight (EMSA plus 2e-5 mg/ml salmon sperm DNA, 1e-5 uM ox-mtDNA), Fig …
[2] = system: NLRP3 L266F (NOMID, C790T) (human); assay: as above; conditions: elution from biotinylated mtDNA beads; oxidized guanine (8-oxoguanine); EMSA and pulldown: 50 mM Tris pH 7.4, 100 mM NaCl, 2 mM MgCl2, 12% glycerol, 4 C overnight (EMSA plus 2e-5 mg/ml salmon sperm DNA, 1e-5 uM ox-mtDNA); Fig …

| Substance | IC50 ([1]; R2 0.98, abstract prints 4 nM) | IC50 [2] | IC50 ([1]; poor fit, R2 0.6, text prints 247 nM, oxidized guanine (8-oxoguanine)) |
| --- | --- | --- | --- |
| non-oxidized mtDNA competitor (unlabeled) | 4.8 nM |  |  |
| ox-mtDNA competitor (unlabeled) |  | 8.1 nM | 247 nM |
